Results taken from the supplement of paper PMC10567573.

B1: PLAGL1 (parent)
chain: TKEKKHQCDHCERCFYTRKDVRRH
B2: ZBED1 (parent)
chain: EQVFSLGDGVSGGFFGIRDSSFL

Variants of: B1
Assay: protein stability index of a GFP-peptide fusion (GPS, HEK-293T) (PSI 1-6); higher = more stable
Details: c terminus: a fixed tail appended
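Further: lentivirally expressed fusions sorted by FACS into six bins by GFP to DsRed ratio, PSI derived from sequencing read proportions per bin multiplied by bin number.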

Row | Variant | protein stability index
1 | TKEKKHQCDHCERCFYTRKDVRNH [R23N] | 4.01
2 | TKEKKHQCDHCERCFYTRKDVRPH [R23P] | 4.04
3 | TKEKKHQCDHCERCFYTRKDVRQH [R23Q] | 3.84
4 | TKEKKHQCDHCERCFYTRKDVRSH [R23S] | 3.7
5 | TKEKKHQCDHCERCFYTRKDVRTH [R23T] | 3.71
6 | TKEKKHQCDHCERCFYTRKDVRVH [R23V] | 3.08
7 | TKEKKHQCDHCERCFYTRKDVRWH [R23W] | 3.08
8 | TKEKKHQCDHCERCFYTRKDVRYH [R23Y] | 3.53
9 | TKEKKHQCDHCERCFYTRKDVRRA [H24A] | 3.79
10 | TKEKKHQCDHCERCFYTRKDVRRC [H24C] | 3.31
11 | TKEKKHQCDHCERCFYTRKDVRRD [H24D] | 3.84
12 | TKEKKHQCDHCERCFYTRKDVRRE [H24E] | 4.12
13 | TKEKKHQCDHCERCFYTRKDVRRF [H24F] | 3.06
14 | TKEKKHQCDHCERCFYTRKDVRRG [H24G] | 3.52
15 | TKEKKHQCDHCERCFYTRKDVRRI [H24I] | 3.24
16 | TKEKKHQCDHCERCFYTRKDVRRK [H24K] | 3.62
17 | TKEKKHQCDHCERCFYTRKDVRRL [H24L] | 3.17
18 | TKEKKHQCDHCERCFYTRKDVRRM [H24M] | 2.88
19 | TKEKKHQCDHCERCFYTRKDVRRN [H24N] | 2.89
20 | TKEKKHQCDHCERCFYTRKDVRRP [H24P] | 3.24
21 | TKEKKHQCDHCERCFYTRKDVRRQ [H24Q] | 3.58
22 | TKEKKHQCDHCERCFYTRKDVRRR [H24R] | 3.37
23 | TKEKKHQCDHCERCFYTRKDVRRS [H24S] | 3.27
24 | TKEKKHQCDHCERCFYTRKDVRRT [H24T] | 3.63
25 | TKEKKHQCDHCERCFYTRKDVRRV [H24V] | 3.11
26 | TKEKKHQCDHCERCFYTRKDVRRW [H24W] | 3.03
27 | TKEKKHQCDHCERCFYTRKDVRRY [H24Y] | 2.79

Variants of: B2
Assay: as above
Details: c terminus: native

Row | Variant | protein stability index
28 | AQVFSLGDGVSGGFFGIRDSSFL [E1A] | 2.52
29 | CQVFSLGDGVSGGFFGIRDSSFL [E1C] | 1.16
30 | DQVFSLGDGVSGGFFGIRDSSFL [E1D] | 3.69
31 | FQVFSLGDGVSGGFFGIRDSSFL [E1F] | 2.19
32 | GQVFSLGDGVSGGFFGIRDSSFL [E1G] | 2.45
33 | HQVFSLGDGVSGGFFGIRDSSFL [E1H] | 2.45
34 | KQVFSLGDGVSGGFFGIRDSSFL [E1K] | 2.64
35 | LQVFSLGDGVSGGFFGIRDSSFL [E1L] | 2.3
36 | MQVFSLGDGVSGGFFGIRDSSFL [E1M] | 1.89
37 | NQVFSLGDGVSGGFFGIRDSSFL [E1N] | 2.99
38 | PQVFSLGDGVSGGFFGIRDSSFL [E1P] | 2.64
39 | QQVFSLGDGVSGGFFGIRDSSFL [E1Q] | 2.77
40 | RQVFSLGDGVSGGFFGIRDSSFL [E1R] | 2.06
41 | SQVFSLGDGVSGGFFGIRDSSFL [E1S] | 2.83
42 | TQVFSLGDGVSGGFFGIRDSSFL [E1T] | 2.35
43 | VQVFSLGDGVSGGFFGIRDSSFL [E1V] | 3.14
44 | WQVFSLGDGVSGGFFGIRDSSFL [E1W] | 1.62
45 | YQVFSLGDGVSGGFFGIRDSSFL [E1Y] | 3.12
46 | EAVFSLGDGVSGGFFGIRDSSFL [Q2A] | 2.44
47 | ECVFSLGDGVSGGFFGIRDSSFL [Q2C] | 1.96
48 | EDVFSLGDGVSGGFFGIRDSSFL [Q2D] | 3.7
49 | EEVFSLGDGVSGGFFGIRDSSFL [Q2E] | 3.88
50 | EFVFSLGDGVSGGFFGIRDSSFL [Q2F] | 1.72

Row | Variant | protein stability index
51 | EGVFSLGDGVSGGFFGIRDSSFL [Q2G] | 3.05
52 | EHVFSLGDGVSGGFFGIRDSSFL [Q2H] | 3.22
53 | EIVFSLGDGVSGGFFGIRDSSFL [Q2I] | 1.84
54 | EKVFSLGDGVSGGFFGIRDSSFL [Q2K] | 2.74
55 | ELVFSLGDGVSGGFFGIRDSSFL [Q2L] | 1.8
56 | EMVFSLGDGVSGGFFGIRDSSFL [Q2M] | 1.65
57 | ENVFSLGDGVSGGFFGIRDSSFL [Q2N] | 2.98
58 | EPVFSLGDGVSGGFFGIRDSSFL [Q2P] | 3.46
59 | ERVFSLGDGVSGGFFGIRDSSFL [Q2R] | 3
60 | ESVFSLGDGVSGGFFGIRDSSFL [Q2S] | 3.44
61 | ETVFSLGDGVSGGFFGIRDSSFL [Q2T] | 3.04
62 | EVVFSLGDGVSGGFFGIRDSSFL [Q2V] | 2.17
63 | EWVFSLGDGVSGGFFGIRDSSFL [Q2W] | 2.03
64 | EYVFSLGDGVSGGFFGIRDSSFL [Q2Y] | 2.43
65 | EQAFSLGDGVSGGFFGIRDSSFL [V3A] | 4.03
66 | EQCFSLGDGVSGGFFGIRDSSFL [V3C] | 2.92
67 | EQDFSLGDGVSGGFFGIRDSSFL [V3D] | 4.19
68 | EQEFSLGDGVSGGFFGIRDSSFL [V3E] | 4.17
69 | EQFFSLGDGVSGGFFGIRDSSFL [V3F] | 2.52
70 | EQGFSLGDGVSGGFFGIRDSSFL [V3G] | 4.03
71 | EQHFSLGDGVSGGFFGIRDSSFL [V3H] | 3.99
72 | EQIFSLGDGVSGGFFGIRDSSFL [V3I] | 2.9
73 | EQKFSLGDGVSGGFFGIRDSSFL [V3K] | 3.7

Row | Variant | protein stability index
74 | EQLFSLGDGVSGGFFGIRDSSFL [V3L] | 2.91
75 | EQMFSLGDGVSGGFFGIRDSSFL [V3M] | 3.15
76 | EQNFSLGDGVSGGFFGIRDSSFL [V3N] | 3.82
77 | EQPFSLGDGVSGGFFGIRDSSFL [V3P] | 4.06
78 | EQQFSLGDGVSGGFFGIRDSSFL [V3Q] | 4.23
79 | EQRFSLGDGVSGGFFGIRDSSFL [V3R] | 3.55
80 | EQSFSLGDGVSGGFFGIRDSSFL [V3S] | 3.63
81 | EQTFSLGDGVSGGFFGIRDSSFL [V3T] | 3.6
82 | EQWFSLGDGVSGGFFGIRDSSFL [V3W] | 2.55
83 | EQYFSLGDGVSGGFFGIRDSSFL [V3Y] | 3.01
84 | EQVASLGDGVSGGFFGIRDSSFL [F4A] | 4.22
85 | EQVCSLGDGVSGGFFGIRDSSFL [F4C] | 3.18
86 | EQVDSLGDGVSGGFFGIRDSSFL [F4D] | 4.38
87 | EQVESLGDGVSGGFFGIRDSSFL [F4E] | 4.55
88 | EQVGSLGDGVSGGFFGIRDSSFL [F4G] | 4.16
89 | EQVHSLGDGVSGGFFGIRDSSFL [F4H] | 4.16
90 | EQVISLGDGVSGGFFGIRDSSFL [F4I] | 3.63
91 | EQVKSLGDGVSGGFFGIRDSSFL [F4K] | 4.06
92 | EQVLSLGDGVSGGFFGIRDSSFL [F4L] | 3.36
93 | EQVMSLGDGVSGGFFGIRDSSFL [F4M] | 3.63
94 | EQVNSLGDGVSGGFFGIRDSSFL [F4N] | 4.11
95 | EQVPSLGDGVSGGFFGIRDSSFL [F4P] | 4.11
